Results taken from patent US20190055316A1.

Experiments:
[1] = target: native human MSLN expressed on the cell surface (N87 tumor cells) (human) (UniProt Q13421); test: KinExA on N87 cells compared with Biacore on soluble MSLN
[2] = target: recombinant human soluble MSLN (human) (UniProt Q13421); test: Biacore (SPR), antibody captured on chip, rHuMSLN sol. in flow
[3] = target: native human MSLN expressed on the cell surface (N87 tumor cells) (human) (UniProt Q13421); test: KinExA equilibrium binding to N87 tumor cells expressing native human MSLN

Sequence of native human MSLN expressed on the cell surface (N87 tumor cells) (human) (Q13421 296-606 limits assumed): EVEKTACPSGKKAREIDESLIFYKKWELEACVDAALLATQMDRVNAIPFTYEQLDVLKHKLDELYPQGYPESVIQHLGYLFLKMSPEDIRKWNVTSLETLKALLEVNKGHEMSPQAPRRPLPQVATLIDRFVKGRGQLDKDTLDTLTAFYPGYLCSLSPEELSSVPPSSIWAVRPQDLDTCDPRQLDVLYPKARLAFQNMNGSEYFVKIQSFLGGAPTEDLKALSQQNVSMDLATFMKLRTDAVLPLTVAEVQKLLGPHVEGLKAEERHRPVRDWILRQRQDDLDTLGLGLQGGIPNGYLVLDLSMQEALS
Sequence of recombinant human soluble MSLN (human) (Q13421 296-606 limits assumed): as above

fold higher selectivity for native surface bound MSLN compared to soluble MSLN [1]: 30 fold
Kd [2]: 0.097 nM
Kd [3]: 0.0035 nM
B1: Ab237 (antibody, V domains shown)
VH: QVQLQESGPGLVKPSQTLSLTCTVSGGSINNNNYYWTWIRQHPGKGLEWIGYIYYSGSTFYNPSLKSRVTISVDTSKTQFSLKLSSVTAADTAVYYCAREDTMTGLDVWGQGTTVTVSS
VL: DIQMTQSPSSLSASVGDRVTITCRASQSINNYLNWYQQKPGKAPTLLIYAASSLQSGVPSRFSGSRSGTDFTLTISSLQPEDFAAYFCQQTYSNPTFGQGTKVEVK
